Article PMC3679732, “Cloning and characterization of bifunctional enzyme farnesyl diphosphate/geranylgeranyl diphosphate synthase from Plasmodium falciparum” (Malaria Journal, 2013)

How the values were obtained:
Assay in all cases: purified protein
Assay type in all cases: biochemical, Plasmodium falciparum
purified protein [1] = substrate: C=C(C)CCO[P@@](=O)(O)OP(=O)(O)O; settings: Mg2+ ([…] MgCl2 in assay) second substrate
purified protein [2] = substrate: CC(C)=CCC/C(C)=C/CC/C(C)=C/CO[P@@](=O)(O)OP(=O)(O)O; settings: Mg2+ ([…] MgCl2 in assay) allylic substrate; DMAPP, GPP, and FPP all compete for binding to the free enzyme active site
purified protein [3] = substrate: CC(C)=CCOP(=O)(O)OP(=O)(O)O; settings: Mg2+ ([…] MgCl2 in assay) allylic substrate; DMAPP, GPP, and FPP all compete for binding to the free enzyme active site
purified protein [4] = substrate: CC(C)=CCC/C(C)=C/COP(=O)(O)OP(=O)(O)O; settings: Mg2+ ([…] MgCl2 in assay) allylic substrate; DMAPP, GPP, and FPP all compete for binding to the free enzyme active site

B1: farnesyl diphosphate/geranylgeranyl diphosphate synthase (rPfFPPS) (Plasmodium falciparum 3D7) (protein)
chain: MENEQNNQDSENGLDYFRSMYDRYRDVFINHINDYVLEDDIKIIISKYYKLLFDYNCLGGKNNRGILVILIYEYVKNRDINCNEWEKVACIAWCIEILQASFLVADDIMDKGETRRNKHCWYLLKDVEIKNAVNDVFLLYNAIYKLLDVYLRNDNCYLDLITSFREATLKTIVGQHLDTNIFSDKYSHIDKDIDVNNINISQENKININMLNFKVYQNIIIHKTAYYSFFLPIVCGMQMGGISLDNLLYKKVENIAILMGEYFQVHDDYIDTFGDSKKTGKVGSDIQNNKLTWPLIKAFELCSQPEKEDIIRNYGKDNVTCIKFINDIYEHYNIRDHYVEYEKKQKMKILEAINQLHHEGIEYVLKYVMDILFTGA
notes: full length protein expressed as a GST fusion protein
Purified protein [1]
  Km: 2.4 ± 0.3 µM
  Vmax: 0.156 µmol/min/mg
Purified protein [2]
  Km: 2.06 ± 0.4 µM
  Vmax: 0.327 µmol/min/mg
Purified protein [3]
  Km: 68 ± 5 µM
  Vmax: 0.453 µmol/min/mg
Purified protein [4]
  Km: 7.8 ± 1.3 µM
  Vmax: 0.341 µmol/min/mg
